The values below come from PMC10458775, “A Combined Plasmonic and Electrochemical Aptasensor Based on Gold Nanopit Arrays for the Detection of Human Serum Albumin”.

The data set addresses human serum albumin (HSA) (Homo sapiens, UniProt P02768 25-609). The data set can be described thus: alternating current voltammetry (electrochemical aptasensor); gold nanopit array with 6-MCH; HSA up to 600 uM; LOD 0.08 nM (not a Kd); 10 mM Tris, 150 mM NaCl, 5 mM KCl, pH 7.4, room temperature; 30 min HSA incubation; aptamer immobilized in 10 mM Tris, 1.5 M NaCl, 1 mM MgCl2, pH 7.4. The following applies: label: 5' ferrocene.

human serum albumin (HSA), sequence (P02768 25-609): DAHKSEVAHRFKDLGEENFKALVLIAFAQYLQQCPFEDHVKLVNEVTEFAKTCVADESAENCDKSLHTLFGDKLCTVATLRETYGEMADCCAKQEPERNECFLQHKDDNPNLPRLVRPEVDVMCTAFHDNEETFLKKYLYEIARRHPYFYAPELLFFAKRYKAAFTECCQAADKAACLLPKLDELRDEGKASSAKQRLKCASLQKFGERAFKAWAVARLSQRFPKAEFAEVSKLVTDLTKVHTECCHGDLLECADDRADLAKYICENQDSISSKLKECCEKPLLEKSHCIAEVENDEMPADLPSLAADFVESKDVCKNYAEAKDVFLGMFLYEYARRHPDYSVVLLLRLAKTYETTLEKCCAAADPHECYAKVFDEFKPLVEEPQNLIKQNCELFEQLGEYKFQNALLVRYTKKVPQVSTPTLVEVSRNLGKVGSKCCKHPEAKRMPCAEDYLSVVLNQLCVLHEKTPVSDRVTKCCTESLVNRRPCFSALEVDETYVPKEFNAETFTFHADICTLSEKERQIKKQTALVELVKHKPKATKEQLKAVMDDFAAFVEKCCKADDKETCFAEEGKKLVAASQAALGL

For GTCTCAGCTACCTTACCGTATGTGGCCCAAAGCGTCTGGATGGCTATGAA (ssDNA, 3' (CH2)6-SH thiol (disulfide reduced with TCEP), immobilized on gold) [HSA aptamer], the binding result was “binds”.
